Results from the Human Domainome abundance scans (Beltran et al. 2025).
± gives the uncertainty stated by the source.

B1: V(D)J recombination-activating protein 2, residues 415 to 491; numbered along this chain, P55895 (parent)
chain: YWITCCPTCDVDINTWVPFYSTELNKPAMIYCSHGDGHWVHAQCMDLAERTLIHLSAGSNKYYCNEHVEIARALHTP

Variants of: B1
Experiment: abundance fitness (aPCA) (normalised: wild type 0, dead -1); higher = more abundant; growth selection in yeast, the domain comes from the species named
Conditions: Homo sapiens

Abundance fitness: each site, then its substitutions
C32: A -1.15 ± 0.21 | Y -0.888 ± 0.34 | D -1.14 ± 0.45 | G -1.17 ± 0.17 | F -0.946 ± 0.3 | L -0.999 ± 0.13 | S -0.683 ± 0.13 | P -0.887 ± 0.16 | T -0.99 ± 0.18 | N -0.85 ± 0.35 | H -0.804 ± 0.39
Y31: K 0.041 ± 0.065 | C -0.039 ± 0.14 | I -0.649 ± 0.26 | V -0.241 ± 0.063 | N -0.322 ± 0.14 | D -0.28 ± 0.15 | W -0.193 ± 0.062 | G -0.337 ± 0.069 | L 0.005 ± 0.056 | S -0.188 ± 0.063 | M 0.004 ± 0.072 | H -0.061 ± 0.18 | F -0.061 ± 0.073 | P -0.245 ± 0.093 | T -0.197 ± 0.079 | A -0.193 ± 0.074 | E -0.018 ± 0.095 | R -0.04 ± 0.065
M29: S 0.208 ± 0.28 | E -0.421 ± 0.24 | G -0.377 ± 0.23 | C -0.532 ± 0.3 | A -0.575 ± 0.33 | L 0.072 ± 0.19 | R 0.055 ± 0.23 | I -0.234 ± 0.29
D36: A -0.177 ± 0.1 | R -0.246 ± 0.094 | M -0.107 ± 0.2 | P -0.011 ± 0.14 | N -0.211 ± 0.23 | F -0.217 ± 0.16 | C -0.092 ± 0.26 | S -0.149 ± 0.14 | G -0.04 ± 0.17 | T -0.62 ± 0.45 | Q 0.055 ± 0.19 | H -0.214 ± 0.33 | K -0.441 ± 0.29 | Y -0.32 ± 0.41
A42: E -0.883 ± 0.14 | L -0.684 ± 0.087 | W -0.643 ± 0.067 | I -0.563 ± 0.38 | D -0.762 ± 0.17 | K -0.411 ± 0.11 | S -0.177 ± 0.077 | T -0.744 ± 0.12 | G -0.115 ± 0.05 | C -0.118 ± 0.077 | Q -0.605 ± 0.17 | P -0.717 ± 0.15 | M -0.313 ± 0.14 | Y -0.626 ± 0.4
A48: W -0.04 ± 0.089 | T 0.026 ± 0.09 | K -0.011 ± 0.076 | I 0.041 ± 0.11 | S -0.066 ± 0.067 | R 0.023 ± 0.058 | M -0.022 ± 0.075 | Q 0.105 ± 0.067 | D -0.044 ± 0.09 | Y -0.092 ± 0.13 | C -0.061 ± 0.14 | F -0.161 ± 0.084 | G -0.078 ± 0.076 | H -0.226 ± 0.16 | N -0.339 ± 0.27 | P 0.037 ± 0.067 | V -0.009 ± 0.054 | E 0.013 ± 0.066 | L 0.001 ± 0.062
S33: A 0.069 ± 0.041 | C -0.057 ± 0.098 | W -0.072 ± 0.052 | L -0.095 ± 0.039 | Q -0.091 ± 0.063 | N -0.06 ± 0.094 | D 0.035 ± 0.078 | R -0.147 ± 0.04 | E 0.036 ± 0.061 | I -0.031 ± 0.052 | H -0.116 ± 0.13 | V -0.157 ± 0.043 | P -0.126 ± 0.062 | F -0.017 ± 0.061 | G -0.065 ± 0.046 | M -0.106 ± 0.057 | K -0.132 ± 0.067
I30: R -0.322 ± 0.22 | K 0.147 ± 0.23 | L 0.122 ± 0.14 | G -0.644 ± 0.18 | M -0.219 ± 0.24
M45: Q 0.032 ± 0.057 | F -0.231 ± 0.091 | D -0.193 ± 0.21 | K -0.202 ± 0.1 | C -0.181 ± 0.099 | H 0.058 ± 0.13 | L -0.291 ± 0.066 | G -0.43 ± 0.058 | Y -0.296 ± 0.21 | N -0.016 ± 0.18 | P -1.26 ± 0.38 | T -0.395 ± 0.099 | V -0.217 ± 0.064 | I -0.615 ± 0.098 | E -0.265 ± 0.13 | W -0.431 ± 0.13
V40: T -0.427 ± 0.14 | K -0.316 ± 0.13 | L -0.043 ± 0.062 | I -0.081 ± 0.35 | F -0.852 ± 0.3 | S -0.456 ± 0.095 | N -0.633 ± 0.33 | Y -0.85 ± 0.32 | G -0.744 ± 0.13 | R -0.65 ± 0.1 | A -0.288 ± 0.14 | D -0.555 ± 0.43 | C -0.206 ± 0.18 | W -1.16 ± 0.23 | Q -0.626 ± 0.24 | M -0.092 ± 0.11
E49: G -0.295 ± 0.044 | M -0.168 ± 0.067 | Y -0.127 ± 0.053 | W -0.292 ± 0.071 | K -0.279 ± 0.1 | Q -0.019 ± 0.093 | A -0.056 ± 0.046 | D -0.038 ± 0.083 | V -0.264 ± 0.049 | S -0.243 ± 0.069 | T -0.345 ± 0.075 | C -0.201 ± 0.067 | L -0.124 ± 0.044 | F -0.149 ± 0.093 | P 0.023 ± 0.075 | R -0.368 ± 0.055 | I -0.468 ± 0.15 | N -0.183 ± 0.14
T51: E -0.016 ± 0.093 | H 0.003 ± 0.14 | D -0.042 ± 0.17 | G -0.048 ± 0.055 | K 0.014 ± 0.12 | I -0.138 ± 0.12 | C -0.027 ± 0.11 | A -0.025 ± 0.045 | M -0.133 ± 0.088 | F -0.118 ± 0.12 | L 0.016 ± 0.058
